The results in this text go back to article PMC5024094, “Identification of a novel sesquiterpene biosynthetic machinery involved in astellolide biosynthesis” (Scientific Reports, 2016).

Substrate in series [1]: O=C(O)c1ccc(O)cc1
Briefly: purified protein. Particulars: A-domain, 2.5 mM ATP, 5 mM MgCl2, 50 mM Tris-HCl pH 7.4, 1 mM DTT, 2 μM AstA, Sfp modification of T-domain essential.

Substrate in series [2]: O=C(O)c1ccccc1
Nature of the series: purified protein. The series is classed as biochemical, Aspergillus oryzae. Particulars: A-domain, 2.5 mM ATP, 5 mM MgCl2, 50 mM Tris-HCl pH 7.4, 1 mM DTT, 2 μM AstA, Sfp modification of T-domain essential.

B1: AstA (Aspergillus oryzae RIB40) (protein)
chain: MDLEPWGPLYRKQDQDGSLDNIAVVSGDIPSPHPKNEPSQTSTLHIPRDSDLDSDIPSVPTALIIAWGLTLSSLTGDEVVGFDLLPFRGDYQDLGARPYHFLLKFGYREWSREAATTGMDLGSASSEGLPQGMGNRPQIAPSRFRNVLIIKQCSDAPGDSGSLESPSLGNVDKDEPTDAFRADMFISIQCGIGRTGIDVHCSFDPAFWTSENIRMILLDLSRNFKEVMRCGRDDTPLTCLEGMSPKGLDCVLRRNIIPPPPKMEACVHHRFQARCRQNPSALAIDAWDGQLTYAELDSLSSQLASRLVSSITICPRGFMGVLMEKSAWVPVAILAVLKVGSAFVFLDGSQPLQRLKIICAETKSQLVLSSAHYREKANTLGPPVLLVEKNQSGLGQAKENDSCPSLLEDYPQPQSQPQDTLYAVFTSGSTGEPKGAMVDHGAFCTMCGPQMAARPTTNVSPRVFQFAPHAFTVSILDYLGTLLQGGCVCVPSEEELRNNMAGAIEGLSANIVTMTPSMARVLDPTQTPSLQLVLLAGEMMAQCDLDKWSQCVRLLSLYGQSENAAGSMISEKSIVPRAPNTFETLTPGFQCWIVSQDNPHRLMALGEVGELLLEGPALGQGYMNDPIQTEDKFICRSFCLEYAHSGSPQSYRLFKTGDLVRYTPAGEIELLGRKGAEVKLRGQRIDLTEIEHHLRCLFPSATRVVADVIIPSDDIDGLHPVLAAFVQVDSVSRTGQSAEATFASPRPEFRAEAKAVLSGLCQTIPSYMIPMTIIPTEAFPFTATGKLDRRSLRQYASAMSRSDLLKYVTDDRGPVVTAVTPVEIIIHDACVEALGVSSDKVGMLDSFPDLGGDSLAARRMVSICRTKGLELAVADILAHSSLTSLAEKCSAGGGGAKQISQGVEMLDPFSTAKEEFLSHLPSFLPNADMIADVFPVQGAQRRAARAIDTFIFRLSGPVDADRLRDACQVLQQAHLALRSIFVPFYGKFMQVVLRVPPLDFTRRLLPDGTDLVKWAESIGQADKTQRPPSEEFVVRFTLAETAGTPDYSIFMMRLSHAQYDAGCLARIISDLWAVYEQKQLVVKSDFAQYARRAVQQTHLLSMEAFWRDLLAGTTGLTPLPVTGISAEEERTIIVQQRVELKEPPPTGISMATVVRGAWSWVLHQQTGNTVVVFNEMLNGRDVVPLEDTEPVVGACHSIVPVCVHFPLPQSGRTPRELLSALQEQHLASLTFTTLDRDYLIQNCTEWTSHQSGFILAYQNFPEICDLVIGEDLSCQWASQVLDLAEPGEAWVTATPLPGALQISLRVSTAAMDEQEANAWISALGQTIIRFLDSPDSVL
notes: recombinant, expressed in Escherichia coli BL21, purified; 1338 aa gene product with A, T and C domains; tag details only in supplement
For B1, in “purified protein [1]”, the Km was 3.8 µM and the catalytic constant (kcat) was determined as 0.0163 s⁻¹. Also, in “purified protein [2]”, the Michaelis constant (Km) was determined as 4.9 µM and the catalytic constant (kcat) was 0.0222 s⁻¹.
